Assay results reported in publication PMC5777259.

Assays:
[1] = target: acto-NM-2B (filamentous β-actin with NM-2B–HMM) (human) (UniProt P60709); experiment: co-sedimentation; 6:1 acto–Tpm mixture (6 μM β-actin, 1 μM Tpm) with 0–16 μM NM-2B–HMM, 30 min; 20 mM MOPS pH 7.0, 5 mM MgCl2, 50 mM KCl; pelleted 20 min at 100,000 × g; Hill fit
[2] = target: filamentous β-actin (human) (UniProt P60709); experiment: co-sedimentation; 10 μM β-actin preincubated with 0–10 μM Tpm for 30 min at room temperature; 20 mM MOPS pH 7.0, 5 mM MgCl2, 100 mM KCl; SDS-PAGE densitometry of supernatant and pellet; Hill fit, apparent constants (K50%)
[3] = target: Tpm3.1-enveloped filamentous β-actin (human) (UniProt P60709); experiment: stopped-flow light scattering; 4 μM NM-2B0 mixed with 0.5–4 μM bare actin or actin-Tpm complex, light scattering at 405 nm; 20 °C; 20 mM MOPS pH 7.0, 100 mM KCl, 5 mM MgCl2; no nucleotide; k+A from the slope, k−A from the y intercept, KA = k−A/k+A
[4] = target: Tpm1.12-enveloped filamentous β-actin (human | rat) (UniProt P60709); experiment: as above

Substance	Kd [1] [nM]	Kd [2] [nM]	Kd [3] [nM]	Kd [4] [nM]
Tpm1.8cy (b.–.b.d) (natural protein)	< 100	100	–	–
single-headed construct NM-2B0 (motor domain of human NM-2B0, residues 1–782, two Dictyostelium discoideum α-actinin repeats, C-terminal octahistidine tag) (from UniProt P35580 1-782) (domain or fragment)	–	–	30	80
